Laboratory results published in paper PMC10189128 (Frontiers in Cellular and Infection Microbiology, 2023).

Target: T1, Mouse Fc-fused SARS-CoV-2 RBD (SARS-CoV-2, original strain (Wuhan-Hu-1 …, UniProt P0DTC2))
T1 construct: source: bought: Sino Biological
Experiment: SPR
Settings: both partners purified

B1: anti-SARS-CoV-2 single-chain variable fragment S1-16 (scFv, V domains shown)
VH: QVQLVQSGAEVKKPGASVKVSCKASGYTFTSYYMHWVRQAPGQGLEWMGIINSSGGSTSYAQKFQGRVTMTRDTSTSTVYMELSSLRSEDTAVYYCARPPRNYYDRSGYYQRAEYFQHWGQGTLVTVSS
VL: DIQLTQSPSSLSASVGDRVTITCQASQDISNYLNWYQQRPGKAPKLLIYDASNLETGVPSRFSGSGSGTDFTFTISSLQPEDIATYYCQQYDNPPLTFGGGTKLEIK
notes: also called scFv S1-16; not shown: His6, C-terminal, kept
  Kd: 135 nM
